Laboratory results: US20220073643A1 (NANJING GENSCRIPT BIOTECH, published 2022)

B1: 257B1G9 (antibody, V domains shown)
VH: QAYLQQSGAELVRSGASVKMSCKASGYTFTSHNMHWVKQTPGQGLEWIGYIYPGNGGTNYNQKFKGKATLTADTSSSTAYMQISSLTSEDSAVYFCTRDYYGNSFAYWGQGTLVTVSA
VL: DIVMTQSPSSLTERAGERVSMSCKSSQSLFNSGNQKNYLTWYQQKPGQPPKLLIYWASTRESGVPDRFTGSGSGTDFTLTISSVQAEDLAVYYCQNDYRYPFTFGAGTKLELK
notes: mouse hybridoma mAb
B2: 257F1E11 (antibody, V domains shown)
VH: QAYLQQSGAELVRSGASVKMSCKASGYTFTSHNIHWVKQTPRQGLEWIGYIYPGNGGTNYNQKFKGKATLTADTSSSTAYMQISSLTSEDSAVYFCTRDYYGNSFAYWGQGTLVTVSA
VL: DIVMTQSPSSLTEKAGERVSMSCKSSQSLFNSGNQKNYLTWYQQKPGQPPKLLIYWASTRESGVPDRFTGSGSGTDFTLTISSVQAEDLAIYYCQNDYWYPFTFGAGTKLELK
notes: mouse hybridoma mAb
B3: 257G7B9 (antibody, V domains shown)
VH: QAYLQQSGAELVRSGASVKMSCKASGYTFTSHNLHWVKQTPGQGLEWIGYIYPGNGNTNYNQKFKGKATLTADTSSSTAYMQISSLTSEDSAVYFCTRDYYGNSFAYWGQGTLVTVSA
VL: DIVMTQSPSSLTEKAGERVSMSCKSSQSLFNSGNQKNYLTWYQQKPGQPPKLLIYWASTRESGVPDRFTGSGSGTDFTLTISSVQAEDLAVYYCQNNYWFPFTFGAGTKLELK
notes: mouse hybridoma mAb
B4: 257G7F7 (antibody, V domains shown)
VH: QAYLQQSGAELVRSGASVKMSCKASGYTFTSHNLHWVKQTPGQGLEWIGYIYPGNGNTNYNQKFKGKATLTADTSSSTAYMQISSLTSEDSAVYFCTRDYYGNSFAYWGQGTLVTVSA
VL: DIVMTQSPSSLTEKAGERVSMSCKSSQSLFNSGNQKNYLTWYQQKPGQPPKLLIYWASTRESGVPDRFTGSGSGTDFTLTISSVQAEDLAVYYCQNNYWFPFTFGAGTKLELK
notes: mouse hybridoma mAb
B5: 258D11C4 (antibody, V domains shown)
VH: QAYLQQSGAELVRSGASVKMSCKASGYTFSSHNMHWVKQTPGQGLEWIGYIYPGNGGTNYNQKFKGKATLTADTSSSTAYMQISSLTSEDSAVYFCTRDYYGNSFAYWGQGTLVTVSA
VL: DIVMTQSPSSLTEKAGERVSMSCKSSQSLFNSGNQKNYLTWYQQKPGQPPKLLIYWASTRQSGVPDRFTGSGSGTDFTLTISSVQAEDLAVYYCQNDYWFPFTFGAGTKLELK
notes: mouse hybridoma mAb
B6: 259C6F4 (antibody, V domains shown)
VH: QAYLQQSGAELVRSGASVKMSCKASGYTFSSHNIHWVKQTPGQGLEWIGYIYPGNGDTNYNQKFKGKATLTADTSSSTAYMQISSLTSEDSAVYFCARDYYGNSFVYWGQGTLVTVSA
VL: DIVMIQSPSSLTEKAGEKVSMSCKSSQSLLNSGNQKNYLTWYQQKPGQPPKLLIYWASTRESGVPDRFTGSGSGTDFTLTISSVQAEDLAVYYCQNAYRFPFTFGAGTKLELK
notes: mouse hybridoma mAb
B7: 259C6F7 (antibody, V domains shown)
VH: QAYLQQSGAELVRSGASVKMSCKASGYTFSSHNIHWVKQTPGQGLEWIGYIYPGNGDTNYNQKFKGKATLTADTSSSTAYMQISSLTSEDSAVYFCARDYYGNSFVYWGQGTLVTVSA
VL: DIVMIQSPSSLTEKAGEKVSMSCKSSQSLLNSGNQKNYLTWYQQKPGQPPKLLIYWASTRESGVPDRFTGSGSGTDFTLTISSVQAEDLAVYYCQNAYRFPFTFGAGTKLELK
notes: mouse hybridoma mAb
B8: 260G9E8 (antibody, V domains shown)
VH: QADLQQSGAELVRSGASVKMSCKASGYTFASHNMHWVKQTPGQGLEWIGYIYPGNGGTKYNQKFTGKATLTADTSSSTAYMQITSLTSEDSAVYFCARDYYGNSFAYWGQGTLVTVSA
VL: DIVMTQSPSSLTEKAGEKVSMRCKSSQSLLNSGNQKNYLTWYQQKPGQPPKLLIYWASTRESGVPDRFTGSGSGTDFTLTISSVQADDLAVYYCQNDYMFPFTFGAGTKLELK
notes: mouse hybridoma mAb
B9: 262H9H6 (antibody, V domains shown)
VH: QAYLQQSGAELVRSGASVKMSCKASGYTFTSHNMHWVKQTPGQGLEWIGYISPGNGYTNYNQKFRGKATLTADTSSSTAYMQISSLTSEDSAVYFCTRDYYGNSFTYWGQGTLVTVSA
VL: DIVMTQSPSSLTEKAGERVSMSCKSSQSLFNSGNQKNYLTWYQQKPGQPPKLLIYWASTRESGVPDRFTGSGSGTEFTLTISSVQAEDLAVYYCQNNYWFPFTFGAGTKLELK
notes: mouse hybridoma mAb
B10: 267H5F12 (antibody, V domains shown)
VH: QAYLQQSGAELVRSGASVKMSCKASGYTFTSHNMHWVKQTPGQGLEWIGYISPGNGYTNYNQKFRGKATLTADTSSSTAYMQISSLTSEDSAVYFCTRDYYGNSFTYWGQGTLVTVSA
VL: DIVMTQSPSSLTEKAGERVSMSCKSSQSLFNSGNQKNYLTWYQQKPGQPPKLLIYWASTRESGVPDRFTGSGSGTEFTLTISSVQAEDLAVYYCQNNYWFPFTFGAGTKLELK
notes: mouse hybridoma mAb
B11: 277F1F8 (antibody, V domains shown)
VH: QAYLQQSGPELVRSGASVKMSCKASGYTFTSHNMHWVKQTPGQGLEWIGYINPGNGGNNYNQKFKGKATLTADTSSSTAYMQISSLTSEDSAVYFCARDYYGNSFAFWGQGTLVTVSA
VL: DIVMTQSPSSLTETAGEKVSMSCKSSQSLLNSGNQKNYLTWYQQKPGQPPKLLIYWASTRESGVPDRFTGSGSGTDFTLTISSVQAEDLAVYYCQNDYRFPFTFGAGTKLELK
notes: mouse hybridoma mAb
B12: 194D3B2 (antibody, V domains shown)
VH: QAYLQQSGAELVRSGASVKMSCKASGYPFTSYNMHWVKQTPGQGLEWVGYIYPGNGGTNYNQKFRDKATLTADTSSSTAYMQISRLTSDDSAVYFCLTGRGFAYWGQGTLVTVSA
VL: DIVMTQSPSSLIVTPGERVTMSCKSSQSLLNSGNQKNYLTWYQQKPGQPPKLLIYRASTRESGVPDRFTGSGSGTDFTLTISSVQAEDLAVYYCQNDYSYPLTFGIGTKLELK
notes: mouse hybridoma mAb
B13: 219F9B8 (antibody, V domains shown)
VH: QAYLQQSGAELVRSGASVRMSCKASGYTFTSYNMHWVKQTPGQGLEWIGYIYPGNGHTNYNQKFKGKATLTADTSSSTAYMQISSLTSEDSAVYFCATGRGFAYWGQGTLVTVSA
VL: DIVMTQSPSSLTVTAGEKVTMSCKSSQSLLNSGNQKNYLTWYQQKPGQPPKLLIYRASTRESGVPDRFTGSGSGTDFTLTISSVQAEDLAVYYCQNDYSYPLTFGVGTKLELK
notes: mouse hybridoma mAb
B14: 182D10F1 (antibody, V domains shown)
VH: QAYLQQSGAELVRSGASVKMSCKASGYTFSSYNMHWVKQTPGQGLEWIGYIYPGNGGTNYNQKFKGKATLTADTSSSTAYMQISSLTSEDSAVYFCLTGRGFTYWGQGTLVTVSA
VL: DIVMTQSPSSLTVTAGEKVTMNCKSSQSLFNSGNQKNYLTWYQQKPGQPPKLLIYRASTRESGVPDRFTGSGSGTDFTLTISSVQAEDLAVYYCQNDYSYPLTFGVGTKLELK
notes: mouse hybridoma mAb
B15: 198F10B8 (antibody, V domains shown)
VH: QAYLQQSGAELVRSGASVRMSCKASGYTFSSYNMHWVKQTPGQGLEWIGYIYPGNGGTNYNQKFKDKATLTADTSSSTAFIQISSLTSEDSAVYFCLTGRGFAYWGQGTLVTVSA
VL: DIVMTQSPSSLTVTAGERVTMSCKSSQSLFNSGNQKNYLTWYQQKPGQPPKLLIYRASTRESGVPDRFTGSGSGTDFTLTISSVQAEDLAVYYCQNDYSYPLTFGVGTKLELK
notes: mouse hybridoma mAb
B16: 213B10A4 (antibody, V domains shown)
VH: QAYVQQSGAELVRSGASVKMSCRASGYTFTSYNMHWVKQTPGQGLEWIGYIYPGNGGTYYNQKFKGKATLTADTSSSTAYMQISSLTSEDSAVYFCATGRGFAYWGQGTLVTVSA
VL: DIVMTQSPSSLTVTAGEKVTMSCKSSQSLLNSGNQKNYLTWYQQKPGQPPKLLIYRASTRESGVPDRFTGSGFGTDFTLTISSVQAEDLAVYYCQNDYSYPLTFGAGTKLELK
notes: mouse hybridoma mAb
B17: 226A4B5 (antibody, V domains shown)
VH: QAYLQQSGAELVRSGASVRMSCKASGFTFTSYNIHWVKQTPGQGLEWIGYIYPGSGGSNYNQKFMGKATLTADTSSSTVYMQISSLTSEDSAVYFCATGRGFAYWGQGTLVTVSA
VL: DIVMTQSPSSLTVTAGEKVTMSCKSSQSLFNSGNQKNYLTWYQQKPGQPPKLLIYRASTRESGVPDRFTGSGSGTDFTLTISSVQAEDLAVYYCQNDYSYPLTFGTGTKLELK
notes: mouse hybridoma mAb
B18: 203A6C9 (antibody, V domains shown)
VH: QVQLKQSGPGLVQPSQSLSITCTVSGFSLTRYGVHWVRQSPGKGLEWLGVIWSGGNTDYNAAFISRLNIRKDNSKSQVFFKMNSLKPNDTAIYYCARAAYFGNSFDYWGQGTTLTVSS
VL: DIVMTQSPSSLPVTAGEKVTMSCKSSQSLLNSGNQKNYLTWYQQKPGQPPKLLIYWASTRDSGVPDRFTGSGSGTDFTLTISSVQAEDLAVYYCQNNYIYPLTFGAGTKLELK
notes: mouse hybridoma mAb
B19: 241H10A1 (antibody, V domains shown)
VH: QVQLQQSGAELVKPGASVKLSCKASGYTFTSFGINWLRQRPEQGLEWIGWIFPGDGNSKYNENFKGKATLTTDKSSSTAYMQVTRLTSEDSAVYFCARFYYGNSFANWGQGTLVTVSA
VL: DIVMTQSPSSLTVTAGEKVTMSCKSSQSLLNSGNQKNYLTWYQQKPGQPPKLLIYWAATRESGVPDRFTGSGSGTDFTLTISSVQAEDLAVYYCQNDYFYPFTFGGGTKLELK
notes: mouse hybridoma mAb
B20: 234A10F7 (antibody, V domains shown)
VH: QVQLQQSGAELVKPGASVKLSCKASGYTFTSFGINWLRQRPEQGLEWIGWIFPGDGNSKYNENFKGKATLTTDKSSSTAYMQLTRLTSEDSAVYFCARFYYGNSFAYWGQGTLVTVSA
VL: DIVMTQSPSSLTVTTGQKVTMSCKSSQSLLNSGNQKNYLTWYQQKPGQPPKLLIYWAATRESGVPDRFTGSGSGTDFTLTISSVQAEDLAVYYCQNDYFYPFTFGAGTKLELK
notes: mouse hybridoma mAb
B21: 273C10E5 (antibody, V domains shown)
VH: QVQLQQSGAELVKPGASVKLSCKASGYTFTSFGINWLRQRPEQGLEWIGWIFPGDGNSKYNENFKGKATLTTDKSSSTAYMQVTRLTSEDSAVYFCARFYYGNSFANWGQGTLVTVSA
VL: DIVMTQSPSSLTVTAGEKVTMSCKSSQSLLNSGNQKNYLTWYQQKPGQPPKLLIYWAATRESGVPDRFAGSGSGTDFTLTISSVQAEDLAVYYCQNDYFYPFTFGAGTKLELK
notes: mouse hybridoma mAb

Target: T1, human Claudin18.2 (human)
T1 construct: also called CLDN18.2
Experiment: cell ELISA, Claudin18.2-expressing HEK293T cells
Method: To determine protein binding EC₅₀ by Cell ELISA, 96-well U-bottom microplates were pre-blocked with blocking buffer (5% MPBS, 1×PBS with 5% skim milk) overnight at 4° C. On the next day, the Claudin18.2-expressing HEK293T stable cell line was suspended at 1.5×10⁶ cells/ml in blocking buffer, added to the plate in 100 μl/well and incubated at room temperature for 1 hour.
Raw data were plotted with GraphPad Prism v6.02 software with four parameters, best-fit value program to analyze the EC₅₀.

In order of falling EC50:
1. B11  ~4410 nM
2. B2  57.8 nM
3. B16  2.33 nM
4. B6  2.32 nM
5. B15  1.82 nM
6. B19  1.66 nM
7. B14  1.65 nM
8. B17  1.59 nM
9. B13  1.16 nM
10. B12  1.09 nM
11. B3  1.02 nM
12. B1  0.948 nM
13. B18  0.916 nM
14. B9  0.879 nM
15. B20  0.857 nM
16. B8  0.821 nM
17. B10  ~0.513 nM
18. B7  ~0.443 nM
19. B4  ~0.413 nM
20. B5  ~0.406 nM
21. B21  0.181 nM
